Tested on: MS2 coat protein
Experiment: apparent KD of MS2 coat protein; designed switch direction (-1 OFF switch, 1 ON switch): -1; higher = weaker reporter binding
Summary of the method: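 Designed RNA switches with common flanks were made on Illumina chips by stalled E. coli RNA polymerase. Titration with SNAP-549-labelled MS2 coat protein doubled from 0.7 or 1.5 nM up to 3 µM. Apparent KD is each design's median over clusters after curve-fitting normalised fluorescence.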

[1] = Eterna round: R95, input ligand: microRNA oligo, concentration not stated
[2] = Eterna round: R95, input ligand: FMN 200 uM
[3] = Eterna round: R95, input ligand: none
[4] = input ligand: microRNA oligo, concentration not stated

| Sequence | apparent KD of MS2 coat protein [1] [µM] | apparent KD of MS2 coat protein [2] [µM] | apparent KD of MS2 coat protein [3] [µM] | apparent KD of MS2 coat protein (input ligand: FMN 200 uM) [µM] | apparent KD of MS2 coat protein (input ligand: none) [µM] | apparent KD of MS2 coat protein [4] [µM] |
| --- | --- | --- | --- | --- | --- | --- |
| GAGUGACAUGAGGAUCACCCAUGUGAGGAUAUCGGACGGACCAAAUUAACAACAACCGCGAGAAGGCACAUCGG [Exclusion 1 V20] (puzzle: Exclusion 1) | 0.112 | – | – | – | – | – |
| GGUUGGCGAGGAUAUACAUGAGGAUCACCCAUGUGAGAGAAAGAAGUGAGGAAGAAAAGUAGAAGGUGCUGACG [salish99_ex3_r3_055] (puzzle: Exclusion 3) | 0.0632 | 0.0566 | 0.0827 | – | – | – |
| CUUUUGUGAGGAUAUUAGUAGUAAAAAAAUAAAAUUACUACUGAGAAGGCACAUGAGGAUCACCCAUGUUUCUC [salish99_ex4_r3_037] (puzzle: Exclusion 4) | 0.0292 | – | – | – | – | – |
| GAUAUGUAAGGAUAUCUAGAAACGAGCGCAGGCUCAAGAAAAGAGAAGGUACAUGAGGAUCACCCAUGUUCCUG [EX4 A.13] (Eterna round: R97, puzzle: Exclusion 4) | – | – | – | 0.0211 | 0.0179 | – |
| GCAUCCAGUGUGAGGAUAUACCUCUGGAUACAUAGGUAGAAGGCACAUGAGGAUCACCCAUGUCCUAAGGAUGC [Fiskers BMX 4 - 29] (puzzle: Brourd's mod of Exclusion 4) | 0.0475 | 0.104 | 0.0755 | – | – | – |
| UUGUUCUGAGGAUAUACAUGAGGAUCACCCAUGUGUUUCUGCUUGGAGACUAGCGAAUGUAGAAGGCUGUUCUC [salish99_ex3_r4_021] (Eterna round: R97, puzzle: Exclusion 3) | – | – | – | 0.0152 | 0.0142 | – |
| GGUGAGCUAGGAUAUGCUUUGGGCCCGCAUUCCUUCGAUAAACUUGAGGAUCACCCAAGUAGAAGGAGCUUGCC [salish99_ex2_r4_031] (Eterna round: R97, puzzle: Exclusion 2) | – | – | – | 0.0304 | 0.017 | – |
| UUGGAGAUAGGAUAUACGAGGAGAGUUGAGGGAAGGUGAUGACAUGAGGAUCACCCAUGUAGAAGGAUCAGGAG [JR_Exclu2_Sub069] (Eterna round: R96, puzzle: Exclusion 2) | – | – | – | 0.169 | 0.172 | 0.0988 |
| UGUGCGUAUGUGAGGAUAUGCUGGUCCUUGGCUCGGCAGAAGGCACAUGAGGAUCACCCAUGUGGUGUCGUACG [salish99_Bmod_ex4_064] (puzzle: Brourd's mod of Exclusion 4) | 0.0521 | – | – | – | – | – |
| GACCGGACGUGGUCAGGUAACAUGAGGAUCACCCAUGUAGGUCUAGGAACAAGCUUUUUGAAAGCUCGUCUUAUAAA [JR_SV3TOV1_Sub058] (puzzle: Sensor v3, turn-off variant 1) | 0.0336 | 0.0567 | 0.0693 | – | – | – |
| AAAGAACAUGAGGAUCACCCAUGUUAGGAUAUAGUAGCAGUGUAUCUAAAGACAGCAGCUAGAAGGAGCAUGAG [Eternabot (Original) Solution 46] (Eterna round: R97, puzzle: Exclusion 1) | – | – | – | 0.0774 | 0.0743 | – |
| UUGGAGAUAGGAUAUACGAGGAGAGUUGAGGGAAGGUGAUGACAUGAGGAUCACCCAUGUAGAAGGAUCAGGAG [JR_Exclu2_Sub069] (puzzle: Exclusion 2) | 0.118 | – | – | – | – | – |
| AGAGUGCUGCGAGGAUAUACAUGAGGAUCACCCAUGUAAAAGUGUGAGGCAAAGCCUCACACGAAGUAGAAGGCGCAGUACUCA [Mat - Exclusion NG 2 - Mod of JL - D34] (Eterna round: R96, puzzle: Exclusion NG 2) | – | – | – | 0.0128 | 0.0252 | 0.00985 |
| GCUAGAGCAGGAUAUCUAGAUCCACACAUGAGGAUCACCCAUGUACGGUCGAAAGACCGAAGAGAAGGGCUCUAGC [Omei Ex5 E12] (Eterna round: R97, puzzle: Exclusion 5) | – | – | – | 0.0985 | 0.067 | – |
| CAAUUCAGAGGAUAUGCGCAUAGAUAAGACUUUUUUUCUUAACAUGAGGAUCACCCAUGUAGAAGGCUGUAAAC [Ex2 #62] (Eterna round: R97, puzzle: Exclusion 2) | – | – | – | 0.0165 | 0.0168 | – |
| GAAAAGGUAGGAUAUACGAAAAAAAAGGGUAGAAAAAAAACACAUGAGGAUCACCCAUGUAGAAGGACCAAGAG [salish99_ex2_r3_039] (puzzle: Exclusion 2) | 0.0243 | 0.0617 | 0.0319 | – | – | – |
| AGUCUGCGAGGAUAUACAUGAGGAUCACCCAUGUGCGAGAUACUAGUGAGGUCGAUUGGUAGAAGGCGCGGACG [Mat - Exclusion 3 - Mod of JL D85] (puzzle: Exclusion 3) | 0.0931 | 0.0864 | 0.067 | – | – | – |
| CAGUACUGAGGAUAUACAUGAGGAUCACCCAUGUGAACCAGCUAGGAAACUAGCAAAAGUAGAAGGCAGUACUG [828 mod 2 m7] (Eterna round: R97, puzzle: Exclusion 3) | – | – | – | 2.26 | 0.0925 | – |
| UUUAGUUGGUAAGGAUAUCCUACAUUGUUCUGGCCCGGGCAUGCUACAUGAGGAUCACCCAUGUGGGAGAAGGUGCGUCAUCGC [Design 19] (Eterna round: R96, puzzle: Exclusion NG 2) | – | – | – | 0.0514 | 0.0479 | 0.0394 |
| UUAGAAAUGGUAGGAUAUUAGUAGUGUUUUACUCUGAUCCACAUGAGGAUCACCCAUGUGAGUAGUGAGAAGGAUCAUUUUAUG [base off of JR design] (Eterna round: R96, puzzle: Exclusion NG 2) | – | – | – | 0.0211 | 0.0193 | 0.0178 |
| AGGGAGCGAGGAUAUACAGAGUAGGAAACCACUCCCUCAGUACAUGAGGAUCACCCAUGUAGAAGGCGCCCGAA [EX2 A.8] (Eterna round: R97, puzzle: Exclusion 2) | – | – | – | 0.0392 | 0.0315 | – |
| GGCAGACAUGAGGAUCACCCAUGUCAGGAUAUGGUGCGAUCGUCGAAAGACGAUAGCACCAGAAGGGACAUGCC [Eli x1 4.03] (Eterna round: R97, puzzle: Exclusion 1) | – | – | – | 0.0305 | 0.0191 | – |
| GCGUGUGCCUAGGAUAUUGGGAAUAUGCAGAAACGAGAAGGAGGCACAUGAGGAUCACCCAUGUGAUGAAAAGA [Teesedri] (puzzle: Exclusion 6) | 0.0456 | 0.0167 | 0.0617 | – | – | – |
| CCUCAACAGUAGGAUAUCAUCAAACUAUUGUGAUGAGAAGGACUGACAUGAGGAUCACCCAUGUUAACGUGAUA [Exclusion 6 - 6:a] (puzzle: Exclusion 6) | 0.0384 | 0.0389 | 0.0449 | – | – | – |
| CCUCAGUCACAGGAUAUGCUCAUCUAAUGAUGAGCAGAAGGGUGAACAUGAGGAUCACCCAUGUUUACGGUGGU [Omei Ex6 E8] (Eterna round: R97, puzzle: Exclusion 6) | – | – | – | 0.122 | 0.328 | – |
| UGAGUGCUGCGAGGAUAUACAUGAGGAUCACCCAUGUGGUCCUGUGAGGCUUUGCCUCACAGGAUGUAGAAGGCGCAGUACUCU [JL ENG2 1.18] (Eterna round: R96, puzzle: Exclusion NG 2) | – | – | – | 0.0829 | 0.0174 | 0.0138 |

Source: the supplement of paper PMC9170038
